Legend:
GINS = assay: Pulldown of recombinant TopBP1-BRCT0-5 by immobilised GINS, 150 mM NaCl; assay type: binding; conditions: for GINS binding? (rec. proteins): summary of recombinant protein interaction tests (yes/no); for GINS interaction: 100 nM TopBP1, 20 mM HEPES pH 8.0, 150 mM NaCl, 0.01% Tween-20, 45 min, 4 °C
Description: Fig. 1 GINS and TopBP1 interact. a (i) Domain model of human (hs) TopBP1, its conservation with BRCT1/2 and 3/4 domains (grey boxes) of budding yeast Dpb11 (scDpb11). Arrows point to binding domains for interacting proteins. (ii) Overview of TopBP1 wild type (WT) and BRCT deletion (Δ) and point mutants. GINS binding capabilities are labelled in red and green. Numbers, amino acid position; capital letters indicate amino acid substitutions. Amino acid substitutions of point mutants in BRCT4 (B4mut) and 5 (B5mut) are coloured orange. b Elution profiles of size exclusion chromatography (Superdex200) of individual recombinant TopBP1-BRCT0-5 protein (grey) and GINS tetramers (green), or of both upon incubation (blue). c Recombinant GINS immobilised on Flag-beads and control beads (Flag peptide-coupled beads) were used to pull down recombinant TopBP1-0-5-WT or TopBP1-ΔBRCT4/5 (compare a(ii)). SDS gels were silver stained. kDa specifies molecular weight marker bands. The experiment was done more than three times with similar results. Source data are provided as a Source data file. TEXT PRINTED IN THE PICTURE: (a) BRCT0-5-WT: GINS binding? (rec. proteins): yes | (a) ΔBRCT4/5: GINS binding? (rec. proteins): no | (a) ΔBRCT3: GINS binding? (rec. proteins): yes | (a) ΔBRCT0/1/2: GINS binding? (rec. proteins): yes | (a) B5mut: GINS binding? (rec. proteins): yes | (a) B4mut: GINS binding? (rec. proteins): no
Fig. 2 Protein structure of the GINS-TopBP1-BRCT4/5 complex. a Structural model of the GINS-TopBP1-BRCT4/5 complex. Crystal structures of the GINS subunits (PDB:2E9X) (shades of green, yellow), and the central BRCT4/5 domain of TopBP1 (PDB:3UEN) (grey) were docked into the cryo-EM volume shown as transparent volume. b Zoom-in of the BRCT4-Psf1 interface. The residues in stick representation appear crucial for the interface. Mutations to break the interaction are coloured pink (Psf1-I97R) and purple (TopBP1-B4mut; compare Fig. 1a(ii)). c Pulldown of the indicated recombinant TopBP1-BRCT0-5-strep versions (see Fig. 1a(ii)) by Flag-beads-immobilised recombinant GINS or Flag peptide-coupled control beads. Analysis was done by immunoblotting. The experiment was done more than three times with similar results. d Pulldown of the indicated recombinant TopBP1-BRCT0-5-WT-strep using immobilised GINS-WT or GINS carrying a Ile97 to arginine mutation in Psf1.TopBP1-Gcc/B4mut-strep (Figs. 1a(ii) and 3a) was used as a non-GINS binding control. The experiment was done twice with similar results. Source data are provided as a Source data file.
Fig. 3 The conserved core of the TopBP1-GINI domain is required for a stable interaction with GINS. a Domain model and T-COFFEE alignment (one-letter aa code) of TopBP1 proteins from humans (Q92547) Xenopus laevis (Q7ZZY3), Bos taurus (A0A3Q1LWE4) and Rattus norvegicus (A0A8I6GFZ6). Coloured boxes indicate GINI region mutants in sub-regions I (blue), II (green) and III (orange), and in the GINI core helix (red) (details in Supplementary Fig. 7). Amino acid substitutions, names of GINI core region mutations and corresponding GINS binding capabilities are shown. ., : and * indicate low conservation, high conservation and identical amino acids, respectively. b/c Pulldown of recombinant TopBP1-BRCT0-5-strep-WT or the indicated GINI region mutants (a) by bead-immobilised GINS or Flag peptide-coupled control beads. Analysis was done by immunoblotting. The experiments were done more than three times with similar results. Source data are provided as a Source data file. d Fluorescence polarisation measurements including dissociation constants (kD) calculations using recombinant GINS tetramer and fluorescently labelled TopBP1-GINI-core peptides (WT or Gpp (a)). For each peptide n = 3 independent experiments and data are presented as mean values +/−SEM. TEXT PRINTED IN THE PICTURE: (a) TopBP1-Gcc: GINS binding? (rec. proteins): no | (a) TopBP1-Gcore: GINS binding? […]

53BP1 = assay: Pulldown of endogenous 53BP1 from 293T cell lysates with recombinant TopBP1; assay type: binding; conditions: pulldown from 293T cell lysates, immunoblotting; 2 h, 4 °C
Protocol: For pulldown assays from soluble lysates of non-transfected 293T cells, 5 µl streptactin Sepharose HP (Cytiva, 28935599) beads were coupled with 10 µg recombinant TopBP1-1-766-strep-WT or mutants in coupling buffer (20 mM HEPES pH 8.0, 150 mM NaCl, 0.1% (v/v) Tween-20, 0.5 mM TCEP, 2% (v/v) glycerol) for 45 min at 4 °C before washing two times with coupling buffer and then once in cell lysis buffer (20 mM HEPES pH 8.0, 150 mM NaCl, 0.1% (v/v) Tween-20, 0.5 mM TCEP, 2% (v/v) glycerol, protease inhibitor cocktail (Roche Complete protease inhibitor cocktail, 05056489001). Control pulldowns were done with Flag-peptide-coupled beads or, when indicated, using GINS-coupled beads and the non-GINS binding TopBP1-Gcc-B4mut. 293T cells were lysed in ten times pellet volume of cell lysis buffer, and centrifuged at 20,000 × g for 15 min at 4 °C. Soluble lysate from cells equivalent to 50% of a 15 cm tissue culture plate was added to the TopBP1-coupled beads and incubated for 2 h at 4 °C rotating. Beads were washed three times with 5 min incubation in lysis buffer and boiled in 50 µl Laemmli buffer before SDS PAGE.
Supplementary Fig. 6: Experiments to control quality of recombinant protein mutants. a: Recombinant TopBP1 point mutants of the GINI and BRCT4 regions bind 53BP1 phospho-dependently. […] Lysates and pulldowns were analysed by immunoblofng. […]

| GINS binding? (rec. proteins) (GINS) | Molecule | GINS interaction (GINS) | binding to (phospho-)53BP1 (53BP1) |
| --- | --- | --- | --- |
| yes | TopBP1-BRCT0-5-WT: recombinant TopBP1 amino acids 1–766, strep-tagged (protein, left off: Strep, C-terminal, kept, recombinant TopBP1 amino acids 1–766, strep-tagged) MSRNDKEPFFVKFLKSSDNSKCFFKALESIKEFQSEEYLQIITEEEALKIKENDRSLYICDPFSGVVFDHLKKLGCRIVGPQVVIFCMHHQRCVPRAEHPVYNMVMSDVTISCTSLEKEKREEVHKYVQMMGGRVYRDLNVSVTHLIAGEVGSKKYLVAANLKKPILLPSWIKTLWEKSQEKKITRYTDINMEDFKCPIFLGCIICVTGLCGLDRKEVQQLTVKHGGQYMGQLKMNECTHLIVQEPKGQKYECAKRWNVHCVTTQWFFDSIEKGFCQDESIYKTEPRPEAKTMPNSSTPTSQINTIDSRTLSDVSNISNINASCVSESICNSLNSKLEPTLENLENLDVSAFQAPEDLLDGCRIYLCGFSGRKLDKLRRLINSGGGVRFNQLNEDVTHVIVGDYDDELKQFWNKSAHRPHVVGAKWLLECFSKGYMLSEEPYIHANYQPVEIPVSHKPESKAALLKKKNSSFSKKDFAPSEKHEQADEDLLSQYENGSSTVVEAKTSEARPFNDSTHAEPLNDSTHISLQEENQSSVSHCVPDVSTITEEGLFSQKSFLVLGFSNENESNIANIIKENAGKIMSLLSRTVADYAVVPLLGCEVEATVGEVVTNTWLVTCIDYQTLFDPKSNPLFTPVPVMTGMTPLEDCVISFSQCAGAEKESLTFLANLLGASVQEYFVRKSNAKKGMFASTHLILKERGGSKYEAAKKWNLPAVTIAWLLETARTGKRADESHFLIENSTKEERSLETEITNGINLNSDTAEHP |  |  |
| no | TopBP1-Gpp: TopBP1-BRCT0-5, central leucine-leucine motif mutated to two consecutive prolines (protein, left off: Strep, C-terminal, kept, TopBP1-BRCT0-5, central leucine-leucine motif mutated to two consecutive prolines) MSRNDKEPFFVKFLKSSDNSKCFFKALESIKEFQSEEYLQIITEEEALKIKENDRSLYICDPFSGVVFDHLKKLGCRIVGPQVVIFCMHHQRCVPRAEHPVYNMVMSDVTISCTSLEKEKREEVHKYVQMMGGRVYRDLNVSVTHLIAGEVGSKKYLVAANLKKPILLPSWIKTLWEKSQEKKITRYTDINMEDFKCPIFLGCIICVTGLCGLDRKEVQQLTVKHGGQYMGQLKMNECTHLIVQEPKGQKYECAKRWNVHCVTTQWFFDSIEKGFCQDESIYKTEPRPEAKTMPNSSTPTSQINTIDSRTLSDVSNISNINASCVSESICNSLNSKLEPTLENLENLDVSAFQAPEDLLDGCRIYLCGFSGRKLDKLRRLINSGGGVRFNQLNEDVTHVIVGDYDDELKQFWNKSAHRPHVVGAKWLLECFSKGYMLSEEPYIHANYQPVEIPVSHKPESKAALLKKKNSSFSKKDFAPSEKHEQADEDPPSQYENGSSTVVEAKTSEARPFNDSTHAEPLNDSTHISLQEENQSSVSHCVPDVSTITEEGLFSQKSFLVLGFSNENESNIANIIKENAGKIMSLLSRTVADYAVVPLLGCEVEATVGEVVTNTWLVTCIDYQTLFDPKSNPLFTPVPVMTGMTPLEDCVISFSQCAGAEKESLTFLANLLGASVQEYFVRKSNAKKGMFASTHLILKERGGSKYEAAKKWNLPAVTIAWLLETARTGKRADESHFLIENSTKEERSLETEITNGINLNSDTAEHP | strongly compromised | no effect on binding to 53BP1 |
| no | TopBP1-B4mut: Val590, Thr606 and Val610 mutated to glutamate, arginine and glutamate (protein, left off: Strep, C-terminal, kept) MSRNDKEPFFVKFLKSSDNSKCFFKALESIKEFQSEEYLQIITEEEALKIKENDRSLYICDPFSGVVFDHLKKLGCRIVGPQVVIFCMHHQRCVPRAEHPVYNMVMSDVTISCTSLEKEKREEVHKYVQMMGGRVYRDLNVSVTHLIAGEVGSKKYLVAANLKKPILLPSWIKTLWEKSQEKKITRYTDINMEDFKCPIFLGCIICVTGLCGLDRKEVQQLTVKHGGQYMGQLKMNECTHLIVQEPKGQKYECAKRWNVHCVTTQWFFDSIEKGFCQDESIYKTEPRPEAKTMPNSSTPTSQINTIDSRTLSDVSNISNINASCVSESICNSLNSKLEPTLENLENLDVSAFQAPEDLLDGCRIYLCGFSGRKLDKLRRLINSGGGVRFNQLNEDVTHVIVGDYDDELKQFWNKSAHRPHVVGAKWLLECFSKGYMLSEEPYIHANYQPVEIPVSHKPESKAALLKKKNSSFSKKDFAPSEKHEQADEDLLSQYENGSSTVVEAKTSEARPFNDSTHAEPLNDSTHISLQEENQSSVSHCVPDVSTITEEGLFSQKSFLVLGFSNENESNIANIIKENAGKIMSLLSRTEADYAVVPLLGCEVEARVGEEVTNTWLVTCIDYQTLFDPKSNPLFTPVPVMTGMTPLEDCVISFSQCAGAEKESLTFLANLLGASVQEYFVRKSNAKKGMFASTHLILKERGGSKYEAAKKWNLPAVTIAWLLETARTGKRADESHFLIENSTKEERSLETEITNGINLNSDTAEHP | strongly compromised in its ability to bind GINS | could still interact with phospho-53BP1 |
